{"source": "patent US11939390B2", "about": "“Methods of treating multiple myeloma” (Sanofi-Aventis U.S. LLC, priority 2019, dated 2024)", "key": {"[1]": {"system": "anti-isatuximab antibodies", "assay": "Immunogenicity: antidrug antibodies (ADA)", "set-up": "species or system human", "details": "in vivo", "description": "The presence of antidrug antibodies (ADA, i.e., anti-isatuximab antibodies) in patients in the IPd arm were assessed throughout the study."}, "[2]": {"assay": "Population pharmacokinetics of isatuximab", "type": "in vivo, human", "details": "patients with renal impairment vs those without", "source_text": "Blood samples were collected from all patients treated with […] to assess the pharmacokinetic profile of isatuximab using population pharmacokinetic approach."}}}
{"substance": "isatuximab: anti-CD38 antibody, CAS Registry Number 1461640-62-9; heavy chain SEQ ID NO: 10, light chain SEQ ID NO: 11", "values": [{"measurement": "anti-drug antibodies (ADA)", "setting": "[1]", "value": "No positive ADA"}, {"measurement": "Pharmacokinetic parameters", "setting": "[2]", "value": "comparable between patients with renal impairment and those without"}]}
